Experimental data as given in patent publication US20060193821, “Aptamers to the human IL-12 cytokine family and their use as autoimmune disease therapeutics” (published 2006).

How the values were obtained:
Settings in all cases: tags: R&D Systems
[1] = biological target: T1, IL-23 (human, p19/p40 heterodimer) (Homo sapiens, UniProt Q9NPF7;P29460 SEQ:20-189,SEQ:23-328); assay: cell_activity; TransAM STAT3, PHA blasts; Table 35 gives 700 nM for full length
Description: (§1) In summary, the cell-based assay was conducted by isolating the peripheral blood mononuclear cells (PBMCs) from whole blood using a Histopaque gradient (Sigma, St. Louis, Mo.). The PBMCs were cultured for 3 to 5 days at 37° C./5% CO₂ in Peripheral Blood Medium (Sigma) which contains PHA, supplemented with IL-2 (100 units/mL) (R&D Systems, Minneapolis, Minn.), to generate PHA Blasts. To test IL-23 aptamers, the PHA Blasts were washed twice with 1×PBS, then serum starved for four hours in RPMI, 0.20% FBS. After serum starvation, approximately 2 million cells were aliquotted into appropriately labeled eppendorf tubes. hIL-23 at a final constant concentration of 3 ng/mL (R&D Systems, Minneapolis, Minn.) was combined with a dilution series of various IL-23 aptamers as described in Example 1, and the cytokine/aptamer mixture was added to the aliquotted cells in a final volume of 100 μl and incubated at 37° C. for 10-12 minutes. The incubation reaction was stopped by adding 1 mL of ice-cold PBS with 1.5 mM Na₃VO₄. Cell lysates were made using the lysis buffer provided by the TransAM™ STAT 3 assay following the manufacturer's instructions. FIG. 20 depicts a flow summary of the protocol used for the cell based assay.
(§2) Full length clones from the rRfY selection described in Example 1A, and select minimized rRfY clones that were described in Example 2A. […]

[2] = biological target: T1, IL-23 (human, p19/p40 heterodimer); assay: cell_activity; TransAM STAT3, PHA blasts; Table 35 gives 1 uM for full length
Description: as §1, §2

[3] = biological target: T1, IL-23 (human, p19/p40 heterodimer); assay: cell_activity; TransAM STAT3, PHA blasts, 3 ng/mL hIL-23
Description: as §1, §2

T1 sequence (Q9NPF7 20-189, chain 1 of 2): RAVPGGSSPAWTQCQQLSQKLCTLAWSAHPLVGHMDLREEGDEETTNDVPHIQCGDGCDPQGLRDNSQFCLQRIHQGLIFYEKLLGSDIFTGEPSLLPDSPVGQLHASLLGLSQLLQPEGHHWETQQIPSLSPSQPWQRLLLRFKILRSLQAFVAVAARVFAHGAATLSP
T1 sequence (P29460 23-328, chain 2 of 2): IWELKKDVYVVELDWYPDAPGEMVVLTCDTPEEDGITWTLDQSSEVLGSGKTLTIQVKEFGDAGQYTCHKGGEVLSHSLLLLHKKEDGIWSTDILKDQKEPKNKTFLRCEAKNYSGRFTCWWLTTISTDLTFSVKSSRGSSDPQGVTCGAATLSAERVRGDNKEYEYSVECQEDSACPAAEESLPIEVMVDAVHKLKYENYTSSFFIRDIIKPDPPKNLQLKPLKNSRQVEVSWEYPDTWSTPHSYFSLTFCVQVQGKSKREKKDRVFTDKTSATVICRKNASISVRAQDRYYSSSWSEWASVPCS

B1: AMX84-B10 (ssRNA)
RNA: GGGAAAAGCGAAUCAUACACAAGAAGUGCUUCAUGCGGCAAACUGCAUGACGUCGAAUAGAUAUGCUCCGCCAGAGACCAACCGAGAA
modifications: 2'-F C and U, 2'-OH A and G
- IC50 [1]: > 1000 nM

B2: AMX84-A10 (ssRNA)
RNA: GGGAAAAGCGAAUCAUACACAAGAAGUUUUUUGUGCUCUGAGUACUCAGCGUCCGUAAGGGAUAUGCUCCGCCAGAGACCAACCGAGAA
modifications: 2'-F C and U, 2'-OH A and G
- IC50 [2]: 400 nM

B3: AMX84-H12 family clone AMX91-H12 (ssRNA)
RNA: GGGAAAAGCGAAUCAUACACAAGACGUGUGCUUUAUGUAAACCAUAACGUUCCAUAAGGAAUAUGCUCCGCCAGAGACCAACCGAGAA
modifications: 2'-F C and U, 2'-OH A and G
- IC50 [3]: 350 nM
